The data set in a line: self-splicing fitness, log relative to wild type (ln ratio); higher = more splicing; Tetrahymena group I intron in knt gene, E. coli kanamycin selection, DiMSum; sequences stand for … in CUCUCU…GGAGGGAAAAGUUAUCAGGCAUGCACCUGGUAGCUAGUCUUUAAACCAAUAGAUUGCAUCGGUUUAAAAGGCAAGACCGUCAAAUUGCGGGAAAGGGGUCAACAGCCGUUCAGUACCAAGUCUCAGGGGAAACUUUGAGAUGGCCUUGCAAAGGGUAUGGUAAUAAGCUGACGGACAUGGUCCUAACCACGCAGCCAAGUCCUAAGUCAACAGAUCUUCUGUUGAUAUGGAUGCAGUUCACAGACUAAAUGUCGGUCGGGGAAGAUGUAUUCUUCUCAUAAGAUAUAGUCGGACCUCUCCUUAAUGGGAGCUAGCGGAUGAAGUGAUGCAACACUGGAGCCGCUGGGAACUAAUUUGUAUGCGAAAGUAUAUUGAUUAGUUUUGGAGUACUCGUGGUCG
The method, boiled down: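 Colonies from six replicate transformations of E. coli BL21(DE3) were pooled and amplicon-sequenced on an Illumina HiSeq 2500. The library placed an intron with all eight P1ex-region nucleotides randomised inside the knt kanamycin-resistance gene on pET-22b(+), and cells grew overnight at 37°C or 30°C on LB agar with or without 25 μg/mL kanamycin (plus 100 μg/mL carbenicillin, 50 μM IPTG, 0.2% rhamnose). Fitness is the DiMSum error-weighted combination of wild-type-normalised replicate fold changes, kanamycin versus none.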

± gives the uncertainty stated by the source.

Consider UACGAGCAAUAUUACGCCCG, for which the “self-splicing fitness (ln)” value is -3.1 ± 0.18 (30 °C) and -2.02 ± 0.17 (37 °C).

Take GAUGAGCAAUAUUACGUCAC: the “self-splicing fitness (ln)” value was -3.62 ± 0.4 (30 °C) and -2.47 ± 0.26 (37 °C).

GAUUAGCAAUAUUACGUCUC: the “self-splicing fitness (ln)” value (30 °C) is -1.24 ± 0.33 and the “self-splicing fitness (ln)” value (37 °C) is -0.965 ± 0.32.

With CCGCAGCAAUAUUACGAGAA, the “self-splicing fitness (ln)” value reads like this: (30 °C) -3.07 ± 0.28; (37 °C) -2.24 ± 0.31.

With GUUCAGCAAUAUUACGAACA, the “self-splicing fitness (ln)” value runs as follows: (30 °C) -2.43 ± 0.26; (37 °C) -1.45 ± 0.22.

Take ACGCAGCAAUAUUACGGCAG: the “self-splicing fitness (ln)” value by setting is: (30 °C) -1.22 ± 0.093; (37 °C) -1.08 ± 0.15.

With GUAGAGCAAUAUUACGGUAA, the “self-splicing fitness (ln)” value by setting is: (30 °C) -1.74 ± 0.15; (37 °C) -1.3 ± 0.19.

As to GAACAGCAAUAUUACGGAGU, the “self-splicing fitness (ln)” value is -2.35 ± 0.066 (30 °C) and -1.66 ± 0.1 (37 °C).

Regarding UAGAAGCAAUAUUACGCCUG, the “self-splicing fitness (ln)” value by setting is: (30 °C) -0.128 ± 0.091; (37 °C) 0.251 ± 0.12.

With GCCGAGCAAUAUUACGGGGU, the “self-splicing fitness (ln)” value is -4.35 ± 0.33 (30 °C) and -2.56 ± 0.2 (37 °C).

For GAACAGCAAUAUUACGCCAC, under “30 °C”, the “self-splicing fitness (ln)” value was -3.15 ± 0.22.

Regarding UUAGAGCAAUAUUACGGCAU, the “self-splicing fitness (ln)” value by setting is: (30 °C) -2.51 ± 0.28; (37 °C) -1.16 ± 0.23.

Turning to GUCGAGCAAUAUUACGAAGA, the “self-splicing fitness (ln)” value (30 °C) was -3.82 ± 0.43 and the “self-splicing fitness (ln)” value (37 °C) is -1.74 ± 0.31.

As for GUUCAGCAAUAUUACGGUCU, the “self-splicing fitness (ln)” value was -0.136 ± 0.047 (30 °C) and 0.327 ± 0.063 (37 °C).

In the case of UAAUAGCAAUAUUACGUUUA, the “self-splicing fitness (ln)” value was -1.86 ± 0.15 (30 °C) and -1.81 ± 0.12 (37 °C).

Regarding AUACAGCAAUAUUACGAGAU, the “self-splicing fitness (ln)” value is, setting by setting: (30 °C) -3.35 ± 0.14; (37 °C) -1.18 ± 0.11.

Take UCGCAGCAAUAUUACGUAUG: the “self-splicing fitness (ln)” value (30 °C) was -1.83 ± 0.1 and the “self-splicing fitness (ln)” value (37 °C) is -2.02 ± 0.15.

Consider ACGUAGCAAUAUUACGGCGA, for which the “self-splicing fitness (ln)” value stood at 0.0177 ± 0.1 (30 °C) and 0.229 ± 0.12 (37 °C).

Turning to AACUAGCAAUAUUACGGCGC, the “self-splicing fitness (ln)” value is, setting by setting: (30 °C) -0.8 ± 0.13; (37 °C) -0.34 ± 0.16.

For CAGAAGCAAUAUUACGACGA, the “self-splicing fitness (ln)” value by setting is: (30 °C) -1.52 ± 0.18; (37 °C) -0.939 ± 0.17.

AGUGAGCAAUAUUACGACAC: the “self-splicing fitness (ln)” value was -2.16 ± 0.29 (30 °C) and -1.64 ± 0.17 (37 °C).

As to UCGAAGCAAUAUUACGGACU, the “self-splicing fitness (ln)” value is -1.07 ± 0.11 (30 °C) and 0.0804 ± 0.13 (37 °C).

On to UUUCAGCAAUAUUACGCGGC, for which the “self-splicing fitness (ln)” value runs as follows: (30 °C) -2.67 ± 0.25; (37 °C) -1.74 ± 0.27.

Take GUCCAGCAAUAUUACGGGGA: the “self-splicing fitness (ln)” value by setting is: (30 °C) -2.41 ± 0.13; (37 °C) -1.37 ± 0.12.

Take UCGAAGCAAUAUUACGUUUC: the “self-splicing fitness (ln)” value was -1.9 ± 0.14 (30 °C) and -3.66 ± 0.36 (37 °C).

With CCAGAGCAAUAUUACGCUUA, for the setting “30 °C”, the “self-splicing fitness (ln)” value was -3.34 ± 0.43.

For ACCGAGCAAUAUUACGUGUG, the “self-splicing fitness (ln)” value runs as follows: (30 °C) -2.5 ± 0.08; (37 °C) -1.79 ± 0.079.

As to AAACAGCAAUAUUACGGUUA, the “self-splicing fitness (ln)” value by setting is: (30 °C) -0.306 ± 0.056; (37 °C) -0.167 ± 0.066.

For the sequence CCAUAGCAAUAUUACGGCCU, where the note is “30 °C”, the “self-splicing fitness (ln)” value is -3.71 ± 0.37.

On to UACUAGCAAUAUUACGAGUG, for which the “self-splicing fitness (ln)” value runs as follows: (30 °C) -1.07 ± 0.083; (37 °C) -0.536 ± 0.1.

Consider GCGAAGCAAUAUUACGAAAU, for which the “self-splicing fitness (ln)” value is, setting by setting: (30 °C) -3.46 ± 0.35; (37 °C) -1.07 ± 0.22.

With ACUCAGCAAUAUUACGCGCA, the “self-splicing fitness (ln)” value was -0.615 ± 0.14 (30 °C) and -0.153 ± 0.1 (37 °C).

Turning to AAAGAGCAAUAUUACGGUCU, the “self-splicing fitness (ln)” value was -2.5 ± 0.13 (30 °C) and -1.76 ± 0.14 (37 °C).

For the sequence UGAGAGCAAUAUUACGGCCA, the “self-splicing fitness (ln)” value (30 °C) was -1.63 ± 0.25.
